Non-standard residues stand in square brackets, D forms with d. No end group written: not given here.
Target: ERK1 MAP kinase (MAPK3), mouse (mouse, UniProt Q63844)
Assay: cell-based or functional assay

For Ac-GRKKRRQRRRPPQGGGGGEPRRTEGVGPGVPGEVEMVKGQPFD[dV] [CPP-RB5], the “EC50 of phospho-ERK positive cells in striatal slices (immunohistochemistry, dose response)” value was 3.4 µM.
